Where two headings read alike, the source gives them in different places.
Legend:
[1] = target: HLA-DR1 (DRB1*0101) (human)
[2] = target: HLA-DR2w2β2 (DRB5*0101) (human)
[3] = target: HLA-DR4w15 (DRB1*0405) (human)
[4] = target: HLA-DR5w11 (DRB1*1101) (human)
[5] = target: HLA-DR3 (DRB1*0301) (human)
[6] = target: HLA-DR4w4 (DRB1*0401) (human)
[7] = target: T1, HLA-DR5w12 (DRB1*1201) (human)
T1 chain 1: not shown
T1 chain 2: not shown

[8] = target: T2, HLA-DR6w19 (DRB1*1302) (human)
T2 chain 1: not shown
T2 chain 2: not shown

[9] = target: T3, HLA-DR7 (DRB1*0701) (human)
T3 chain 1: not shown
T3 chain 2: not shown

[10] = target: T4, HLA-DR8w2 (DRB1*0802) (human)
T4 chain 1: not shown
T4 chain 2: not shown

[11] = target: T5, HLA-DR9 (DRB1*0901) (human)
T5 chain 1: not shown
T5 chain 2: not shown

[12] = target: T6, HLA-DRw53 (DRB4*0101) (human)
T6 chain 1: not shown
T6 chain 2: not shown

HLA-A*1101 (human) [13] = experiment: competition with 125I-labelled standard peptide for purified HLA, gel filtration
HLA-A*1101 (Human) [14] = target: HLA-A*1101 (Human)
HLA-A*1101 (Human) [15] = target: HLA-A*1101 (Human); remark: listed apart in the source

TVLLGGVGLVLYNTE (modifications not checked)
binding affinity ratio (IC50 of standard peptide / IC50 of test peptide) [1]: 0.49 | binding affinity ratio (IC50 of standard peptide / IC50 of test peptide) [2]: -0.0005 | binding affinity ratio (IC50 of standard peptide / IC50 of test peptide) [3]: -0.0009 | binding affinity ratio (IC50 of standard peptide / IC50 of test peptide) [4]: -0.0002

ILSVFFLALFFIIFN (modifications not checked)
binding affinity ratio (IC50 of standard peptide / IC50 of test peptide) [2]: 0.0091 | binding affinity ratio (IC50 of standard peptide / IC50 of test peptide) [5]: -0.0008 | binding affinity ratio (IC50 of standard peptide / IC50 of test peptide) [3]: -0.0009

LIDVHDLISDMIKKE (modifications not checked)
binding affinity ratio (IC50 of standard peptide / IC50 of test peptide) [5]: 0.01 | binding affinity ratio (IC50 of standard peptide / IC50 of test peptide) [3]: 0.0076

AGGLALLACAGLAYK (modifications not checked)
binding affinity ratio (IC50 of standard peptide / IC50 of test peptide) [6]: -0.0007 | binding affinity ratio (IC50 of standard peptide / IC50 of test peptide) [4]: -0.0002

VKYLVIVFLIFFDLF (modifications not checked)
binding affinity ratio (IC50 of standard peptide / IC50 of test peptide) [1]: 0.0001 | binding affinity ratio (IC50 of standard peptide / IC50 of test peptide) [6]: 0.003

CVEVEKTASCGVWDE (modifications not checked)
binding affinity ratio (IC50 of standard peptide / IC50 of test peptide) [1]: 0.0004 | binding affinity ratio (IC50 of standard peptide / IC50 of test peptide) [2]: -0.0005 | binding affinity ratio (IC50 of standard peptide / IC50 of test peptide) [3]: -0.0009 | binding affinity ratio (IC50 of standard peptide / IC50 of test peptide) [6]: 0.0021 | binding affinity ratio (IC50 of standard peptide / IC50 of test peptide) [4]: -0.0002

LGNVKYLVIVFLIFF (modifications not checked)
binding affinity ratio (IC50 of standard peptide / IC50 of test peptide) [1]: 0.0006 | binding affinity ratio (IC50 of standard peptide / IC50 of test peptide) [5]: -0.0008

CGVWDEWSPCSVTCG (modifications not checked)
binding affinity ratio (IC50 of standard peptide / IC50 of test peptide) [1]: 0.0001 | binding affinity ratio (IC50 of standard peptide / IC50 of test peptide) [2]: -0.0006 | binding affinity ratio (IC50 of standard peptide / IC50 of test peptide) [6]: -0.0007 | binding affinity ratio (IC50 of standard peptide / IC50 of test peptide) [4]: -0.0002

RHPFKIGSSDPADNA (modifications not checked) [… (Pf EXP 107)]
binding affinity ratio (IC50 of standard peptide / IC50 of test peptide) [7]: 0.0001 | binding affinity ratio (IC50 of standard peptide / IC50 of test peptide) [8]: 0.0003 | binding affinity ratio (IC50 of standard peptide / IC50 of test peptide) [9]: -0.0003 | binding affinity ratio (IC50 of standard peptide / IC50 of test peptide) [10]: 0.038 | binding affinity ratio (IC50 of standard peptide / IC50 of test peptide) [11]: 0.095

MKILSVFFLALFFII (modifications not checked) [… (Pf EXP 1)]
binding affinity ratio (IC50 of standard peptide / IC50 of test peptide) [7]: 0.0023 | binding affinity ratio (IC50 of standard peptide / IC50 of test peptide) [8]: 0.0019 | binding affinity ratio (IC50 of standard peptide / IC50 of test peptide) [9]: 0.036 | binding affinity ratio (IC50 of standard peptide / IC50 of test peptide) [10]: 0.0023 | binding affinity ratio (IC50 of standard peptide / IC50 of test peptide) [11]: 0.006

LIDVHDLISDMIKKE (modifications not checked) [… (Pf EXP 47)]
binding affinity ratio (IC50 of standard peptide / IC50 of test peptide) [7]: 0.0001 | binding affinity ratio (IC50 of standard peptide / IC50 of test peptide) [8]: 0.0004 | binding affinity ratio (IC50 of standard peptide / IC50 of test peptide) [9]: 0.01 | binding affinity ratio (IC50 of standard peptide / IC50 of test peptide) [10]: 0.0096 | binding affinity ratio (IC50 of standard peptide / IC50 of test peptide) [11]: 0.043 | binding affinity ratio (IC50 of standard peptide / IC50 of test peptide) [12]: 0.094

IGPFMKAVCVEVEKT (modifications not checked) [… (Pf SSP2 227)]
binding affinity ratio (IC50 of standard peptide / IC50 of test peptide) [7]: 0.0038 | binding affinity ratio (IC50 of standard peptide / IC50 of test peptide) [8]: 0.0003 | binding affinity ratio (IC50 of standard peptide / IC50 of test peptide) [9]: 0.0019 | binding affinity ratio (IC50 of standard peptide / IC50 of test peptide) [10]: -0.0003 | binding affinity ratio (IC50 of standard peptide / IC50 of test peptide) [11]: 0.082 | binding affinity ratio (IC50 of standard peptide / IC50 of test peptide) [12]: 0.07

AGGIAGGLALLACAG (modifications not checked) [… (Pf SSP2 513)]
binding affinity ratio (IC50 of standard peptide / IC50 of test peptide) [7]: 0.0007 | binding affinity ratio (IC50 of standard peptide / IC50 of test peptide) [9]: -0.0003 | binding affinity ratio (IC50 of standard peptide / IC50 of test peptide) [10]: 0.0004 | binding affinity ratio (IC50 of standard peptide / IC50 of test peptide) [12]: -0.0005

AGGLALLACAGLAYK (modifications not checked) [… (Pf SSP2 517)]
binding affinity ratio (IC50 of standard peptide / IC50 of test peptide) [7]: 0.0051 | binding affinity ratio (IC50 of standard peptide / IC50 of test peptide) [9]: 0.0009 | binding affinity ratio (IC50 of standard peptide / IC50 of test peptide) [10]: 0.0003 | binding affinity ratio (IC50 of standard peptide / IC50 of test peptide) [12]: -0.0005

AVPLAMKLIQQLNLN (modifications not checked) [… (Pf SSP2 68)]
binding affinity ratio (IC50 of standard peptide / IC50 of test peptide) [7]: 0.13 | binding affinity ratio (IC50 of standard peptide / IC50 of test peptide) [9]: 0.077 | binding affinity ratio (IC50 of standard peptide / IC50 of test peptide) [10]: 0.04 | binding affinity ratio (IC50 of standard peptide / IC50 of test peptide) [12]: 0.035

VVILTDGIPDSIQDS (modifications not checked) [… (Pf SSP2 157)]
binding affinity ratio (IC50 of standard peptide / IC50 of test peptide) [7]: 0.0001 | binding affinity ratio (IC50 of standard peptide / IC50 of test peptide) [9]: -0.0003 | binding affinity ratio (IC50 of standard peptide / IC50 of test peptide) [10]: -0.0003 | binding affinity ratio (IC50 of standard peptide / IC50 of test peptide) [12]: 0.0114

ANQLVVILTDGIPDS (modifications not checked) [… (Pf SSP2 153)]
binding affinity ratio (IC50 of standard peptide / IC50 of test peptide) [7]: 0.0003 | binding affinity ratio (IC50 of standard peptide / IC50 of test peptide) [8]: 0.007 | binding affinity ratio (IC50 of standard peptide / IC50 of test peptide) [9]: 0.0054 | binding affinity ratio (IC50 of standard peptide / IC50 of test peptide) [10]: -0.0002 | binding affinity ratio (IC50 of standard peptide / IC50 of test peptide) [11]: 0.042

SIQDSLKESR (modifications not checked)
binding affinity ratio (IC50 of standard peptide / IC50 of test peptide) (HLA-A*1101 (human) [13]): 0.0009

SVTCGKGTR (modifications not checked)
binding affinity ratio (IC50 of standard peptide / IC50 of test peptide) (HLA-A*1101 (human) [13]): 0.0009

WSPCSVTCGK (modifications not checked)
binding affinity ratio (IC50 of standard peptide / IC50 of test peptide) (HLA-A*1101 (human) [13]): 0.0002

GVSSKKKNK (modifications not checked)
binding affinity ratio (IC50 of standard peptide / IC50 of test peptide) (HLA-A*0301 (human)): 0.0001

GVSSKKKNKK (modifications not checked)
binding affinity ratio (IC50 of standard peptide / IC50 of test peptide) (HLA-A*0301 (human)): 0.0011

HDLISDMIK (modifications not checked)
binding affinity ratio (IC50 of standard peptide / IC50 of test peptide) (HLA-A*0301 (human)): 0.0001

HDLISDMIKK (modifications not checked)
binding affinity ratio (IC50 of standard peptide / IC50 of test peptide) (HLA-A*0301 (human)): 0.0009

IFNKESLAEK (modifications not checked) [… (P. falciparum EXP, position 15)]
binding affinity ratio (IC50 of standard peptide / IC50 of test peptide) (HLA-A*0301 (human)): 0.0005

KGTGSGVSSK (modifications not checked) [… (P. falciparum EXP, position 27)]
binding affinity ratio (IC50 of standard peptide / IC50 of test peptide) (HLA-A*0301 (human)): 0.0005

CGNGIQVRIK (modifications not checked) [… (Pf CSP 377, A11 motif peptide)]
binding affinity ratio (IC50 of standard peptide / IC50 of test peptide) (HLA-A*1101 (Human) [14]): 0.0002

DGNNEDNEK (modifications not checked) [… (Pf CSP 96, A11 motif peptide)]
binding affinity ratio (IC50 of standard peptide / IC50 of test peptide) (HLA-A*1101 (Human) [14]): 0.0002

LDYENDIEK (modifications not checked)
binding affinity ratio (IC50 of standard peptide / IC50 of test peptide) (HLA-A*1101 (Human) [15]): 0.0002

LDYENDIEKK (modifications not checked)
binding affinity ratio (IC50 of standard peptide / IC50 of test peptide) (HLA-A*1101 (Human) [15]): 0.0002

NDIEKKICK (modifications not checked) [NDIEKKIK (CSP 401)]
binding affinity ratio (IC50 of standard peptide / IC50 of test peptide) (HLA-A*1101 (Human) [14]): 0.0002

NGDNGREGK (modifications not checked) [… (CSP 82)]
binding affinity ratio (IC50 of standard peptide / IC50 of test peptide) (HLA-A*1101 (Human) [15]): 0.0002

NGREGKDEDK (modifications not checked) [… (CSP 85)]
binding affinity ratio (IC50 of standard peptide / IC50 of test peptide) (HLA-A*1101 (Human) [15]): 0.0002

NLYNELEMNY (modifications not checked) [… (CSP 46)]
binding affinity ratio (IC50 of standard peptide / IC50 of test peptide) (HLA-A*1101 (Human) [15]): 0.0002

NTRVLNELNY (modifications not checked) [… (CSP 31)]
binding affinity ratio (IC50 of standard peptide / IC50 of test peptide) (HLA-A*1101 (Human) [14]): 0.0002

RDGNNEDNEK (modifications not checked) [… (P. falciparum CSP, position 95)]
binding affinity ratio (IC50 of standard peptide / IC50 of test peptide) (HLA-A*1101 (Human) [14]): 0.0002

EVNKRKSKY (modifications not checked) [… (P. falciparum EXP, position 66)]
binding affinity ratio (IC50 of standard peptide / IC50 of test peptide) (HLA-A*1101 (Human) [14]): 0.0002

Source: patent US9266930
